Results: article PMC6555819, “Comprehensive study of nuclear receptor DNA binding provides a revised framework for understanding receptor specificity”
Where a chain is given by its changes, count along the chain named.

B1: NRC3_wobSeed7_DR0_T6G_o1 (dsDNA)
DNA 1: GCTCAGATAGGTAAAGGTGAAAGTCGAACGATATGAGCGATTGACAGCGTAGAATGAAGG
DNA 2: CCTTCATTCTACGCTGTCAATCGCTCATATCGTTCGACTTTCACCTTTACCTATCTGAGC
B2: NRC3_wobSeed38_DR1_o1 (dsDNA)
DNA 1: GCCCTGCTAGGTCAATGGTCAGCTAAAGCAGCTCGCGCGATTGACAGCGTAGAATGAAGG
DNA 2: CCTTCATTCTACGCTGTCAATCGCGCGAGCTGCTTTAGCTGACCATTGACCTAGCAGGGC
B3: NRC3_wobSeed34_DR1_A9G_o1 (dsDNA)
DNA 1: GCATCGAAGGGTCGAAGGTGAGTATACCCACCCGAAGCGATTGACAGCGTAGAATGAAGG
DNA 2: CCTTCATTCTACGCTGTCAATCGCTTCGGGTGGGTATACTCACCTTCGACCCTTCGATGC
B4: NRC3_wobSeed26_DR1_T19C_o1 (dsDNA)
DNA 1: GCTCTAGTTGGTCAAAGGCCACACACTCGAAATGCGGCGATTGACAGCGTAGAATGAAGG
DNA 2: CCTTCATTCTACGCTGTCAATCGCCGCATTTCGAGTGTGTGGCCTTTGACCAACTAGAGC
B5: NRC3_wobSeed102_DR4_A9C_o1 (dsDNA)
DNA 1: GCCCTAGCCGGCCAATCTGGGTCACTCAAGGCTTGAGCGATTGACAGCGTAGAATGAAGG
DNA 2: CCTTCATTCTACGCTGTCAATCGCTCAAGCCTTGAGTGACCCAGATTGGCCGGCTAGGGC
B6: NRC3_wobSeed110_DR4_T27G_o1 (dsDNA)
DNA 1: GCTCTGCTAGGTCAACGATGGTCAGCGAATCTGCTAGCGATTGACAGCGTAGAATGAAGG
DNA 2: CCTTCATTCTACGCTGTCAATCGCTAGCAGATTCGCTGACCATCGTTGACCTAGCAGAGC
B7: NRC3_wobSeed137_DR5_A14C_o1 (dsDNA)
DNA 1: GCATATGTAGGTTCCATCCGGGTCATTCAGGCTATGGCGATTGACAGCGTAGAATGAAGG
DNA 2: CCTTCATTCTACGCTGTCAATCGCCATAGCCTGAATGACCCGGATGGAACCTACATATGC
B8: NRC3_wobSeed48_DR1_G5T_o1 (dsDNA)
DNA 1: GCCCTAGTAGGTTATGGGGCATTCAGGCAACGGTGAGCGATTGACAGCGTAGAATGAAGG
DNA 2: CCTTCATTCTACGCTGTCAATCGCTCACCGTTGCCTGAATGCCCCATAACCTACTAGGGC
B9: NRC3_wobSeed102_DR4_G11A_o1 (dsDNA)
DNA 1: B5 DNA 1 with C9A, G11A
DNA 2: B5 DNA 2 with C50T, G52T
B10: NRC3_wobSeed141_DR5_T5A_o1 (dsDNA)
DNA 1: GCAGACAAAGTTCAGGACGAGGTAACGTAAAGCACGGCGATTGACAGCGTAGAATGAAGG
DNA 2: CCTTCATTCTACGCTGTCAATCGCCGTGCTTTACGTTACCTCGTCCTGAACTTTGTCTGC
B11: NRC3_wobSeed82_DR3_C13G_o1 (dsDNA)
DNA 1: GCATCGAAAGGTGGACGAGGTGAGTATACACCGTTTGCGATTGACAGCGTAGAATGAAGG
DNA 2: CCTTCATTCTACGCTGTCAATCGCAAACGGTGTATACTCACCTCGTCCACCTTTCGATGC
B12: NRC3_wobSeed4_DR0_G16T_o1 (dsDNA)
DNA 1: GCCCTACTGGGCCAATGTCATTGATCAGTCAAAGCAGCGATTGACAGCGTAGAATGAAGG
DNA 2: CCTTCATTCTACGCTGTCAATCGCTGCTTTGACTGATCAATGACATTGGCCCAGTAGGGC
B13: NRC3_wobSeed6_DR0_G15C_o1 (dsDNA)
DNA 1: GCCCTAGCAGGCCACGGTCACTCAAGCATTTCGCTTGCGATTGACAGCGTAGAATGAAGG
DNA 2: CCTTCATTCTACGCTGTCAATCGCAAGCGAAATGCTTGAGTGACCGTGGCCTGCTAGGGC
B14: NRC3_wobSeed99_DR4_A24T_o1 (dsDNA)
DNA 1: GCTCTCGGAGGACACGAAAGGTCTGAGCTCGACATCGCGATTGACAGCGTAGAATGAAGG
DNA 2: CCTTCATTCTACGCTGTCAATCGCGATGTCGAGCTCAGACCTTTCGTGTCCTCCGAGAGC
B15: NRC3_wobSeed50_DR2_A17T_o1 (dsDNA)
DNA 1: GCCCTAGTTGGTCAGGTGGTCACACACCGGATATGAGCGATTGACAGCGTAGAATGAAGG
DNA 2: CCTTCATTCTACGCTGTCAATCGCTCATATCCGGTGTGTGACCACCTGACCAACTAGGGC
B16: NRC3_wobSeed42_DR1_A14T_o1 (dsDNA)
DNA 1: GCTATACAGGGTCTAAGGCCAGAGTACGAATGTCGAGCGATTGACAGCGTAGAATGAAGG
DNA 2: CCTTCATTCTACGCTGTCAATCGCTCGACATTCGTACTCTGGCCTTAGACCCTGTATAGC
B17: NRC3_wobSeed2_DR0_A20T_o1 (dsDNA)
DNA 1: GCCCTAGTTGGTCAAGGTCTCACACGCTATAGGTACGCGATTGACAGCGTAGAATGAAGG
DNA 2: CCTTCATTCTACGCTGTCAATCGCGTACCTATAGCGTGTGAGACCTTGACCAACTAGGGC
B18: NRC3_wobSeed99_DR4_G20A_o1 (dsDNA)
DNA 1: B14 DNA 1 with G20A, T24A
DNA 2: B14 DNA 2 with A37T, C41T
B19: NRC3_wobSeed15_DR0_G10T_o1 (dsDNA)
DNA 1: GCCGAACTATGTCAAGGACAGTGAATCTCCGCACGCGCGATTGACAGCGTAGAATGAAGG
DNA 2: CCTTCATTCTACGCTGTCAATCGCGCGTGCGGAGATTCACTGTCCTTGACATAGTTCGGC
B20: NRC3_wobSeed61_DR2_G11C_o1 (dsDNA)
DNA 1: GCCGTCCAAGCTCAGCAGGTCAGTGAAAGCGACGTGGCGATTGACAGCGTAGAATGAAGG
DNA 2: CCTTCATTCTACGCTGTCAATCGCCACGTCGCTTTCACTGACCTGCTGAGCTTGGACGGC
B21: NRC3_wobSeed133_DR5_A14C_o1 (dsDNA)
DNA 1: GCCGTCCAAGGTCCATGCTAGGTCAGTGAAAGCATTGCGATTGACAGCGTAGAATGAAGG
DNA 2: CCTTCATTCTACGCTGTCAATCGCAATGCTTTCACTGACCTAGCATGGACCTTGGACGGC
B22: NRC3_wobSeed47_DR1_G11C_o1 (dsDNA)
DNA 1: GCGGAACGAGCGCAAAGTTGATAGCATCTGTCGACGGCGATTGACAGCGTAGAATGAAGG
DNA 2: CCTTCATTCTACGCTGTCAATCGCCGTCGACAGATGCTATCAACTTTGCGCTCGTTCCGC
B23: NRC3_wobSeed122_DR5_A20T_o1 (dsDNA)
DNA 1: GCGCTAGTTGGTCAGTAAATGGTCACACACCGGTCGGCGATTGACAGCGTAGAATGAAGG
DNA 2: CCTTCATTCTACGCTGTCAATCGCCGACCGGTGTGTGACCATTTACTGACCAACTAGCGC
B24: NRC3_wobSeed14_DR0_G11T_o1 (dsDNA)
DNA 1: GCCCTGCTAGTTCATGGTCAGCTAATCTACAGTATGGCGATTGACAGCGTAGAATGAAGG
DNA 2: CCTTCATTCTACGCTGTCAATCGCCATACTGTAGATTAGCTGACCATGAACTAGCAGGGC

Biological target: PPARa:RXRa (Homo sapiens, UniProt Q07869;P19793 full;full)
Experiment: no ligand; PBM; 270 nM : 90 nM RXRa; PBS pH 7.4, 2% milk, 0.02% Triton X-100, 1 mM DTT, BSA, 0.4 mg/ml salmon testes DNA
Conditions: tags: GST kept;His cleaved; copies: 1;1; label: surface-attached array probe
Procedure, shortened: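 Custom Agilent 4×180K protein-binding microarrays carried double-stranded probes, each with a 34-nt variable region. These regions held direct-repeat seeds, single-nucleotide variants, half-site ablations and random human genomic background sequences. Ligand-free nuclear receptor dimers were incubated on the arrays for 1 h, antibodies against each partner (one per run) detected binding, and scanned fluorescence was regression-normalized. Binding z-scores take the random background probes as reference.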

PPARa:RXRa, sequence (Q07869 whole entry, chain 1 of 2): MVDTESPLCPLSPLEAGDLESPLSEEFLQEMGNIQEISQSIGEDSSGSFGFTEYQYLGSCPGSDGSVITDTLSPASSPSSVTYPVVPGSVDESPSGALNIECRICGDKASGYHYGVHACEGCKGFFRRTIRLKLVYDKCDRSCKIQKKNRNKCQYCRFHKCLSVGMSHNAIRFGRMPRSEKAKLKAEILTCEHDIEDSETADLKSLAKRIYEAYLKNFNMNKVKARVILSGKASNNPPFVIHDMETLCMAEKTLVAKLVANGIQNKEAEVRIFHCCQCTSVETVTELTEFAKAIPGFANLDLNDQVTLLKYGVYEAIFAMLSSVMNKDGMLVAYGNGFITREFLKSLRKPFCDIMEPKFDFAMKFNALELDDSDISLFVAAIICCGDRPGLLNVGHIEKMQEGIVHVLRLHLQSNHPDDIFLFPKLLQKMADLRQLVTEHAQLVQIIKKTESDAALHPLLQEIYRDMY
PPARa:RXRa, sequence (P19793 whole entry, chain 2 of 2): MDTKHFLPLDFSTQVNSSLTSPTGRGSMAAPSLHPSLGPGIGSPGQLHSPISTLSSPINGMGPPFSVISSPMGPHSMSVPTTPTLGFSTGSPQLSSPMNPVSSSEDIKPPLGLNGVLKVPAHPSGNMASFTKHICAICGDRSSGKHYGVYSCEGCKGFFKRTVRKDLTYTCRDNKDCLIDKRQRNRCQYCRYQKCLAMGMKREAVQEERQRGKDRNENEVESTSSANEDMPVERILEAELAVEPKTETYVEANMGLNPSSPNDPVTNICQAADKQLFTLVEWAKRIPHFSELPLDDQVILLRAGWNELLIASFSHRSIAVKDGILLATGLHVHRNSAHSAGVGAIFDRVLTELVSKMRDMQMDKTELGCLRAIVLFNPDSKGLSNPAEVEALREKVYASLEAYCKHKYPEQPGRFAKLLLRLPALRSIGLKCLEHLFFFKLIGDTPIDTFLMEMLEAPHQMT

| Binder | binding signal |
| --- | --- |
| B1 | 3.2 PBM z-score against 500 random probes |
| B2 | 3.19 PBM z-score against 500 random probes |
| B3 | 3.17 PBM z-score against 500 random probes |
| B4 | 3.15 PBM z-score against 500 random probes |
| B5 | 3.14 PBM z-score against 500 random probes |
| B6 | 3.11 PBM z-score against 500 random probes |
| B7 | 3.09 PBM z-score against 500 random probes |
| B8 | 3.05 PBM z-score against 500 random probes |
| B9 | 3.03 PBM z-score against 500 random probes |
| B10 | 3 PBM z-score against 500 random probes |
| B11 | 0.49 PBM z-score against 500 random probes |
| B12 | 0.47 PBM z-score against 500 random probes |
| B13 | 0.43 PBM z-score against 500 random probes |
| B14 | 0.43 PBM z-score against 500 random probes |
| B15 | 0.4 PBM z-score against 500 random probes |
| B16 | 0.39 PBM z-score against 500 random probes |
| B17 | 0.37 PBM z-score against 500 random probes |
| B18 | 0.36 PBM z-score against 500 random probes |
| B19 | 0.36 PBM z-score against 500 random probes |
| B20 | 0.35 PBM z-score against 500 random probes |
| B21 | 0.33 PBM z-score against 500 random probes |
| B22 | 0.32 PBM z-score against 500 random probes |
| B23 | 0.26 PBM z-score against 500 random probes |
| B24 | 0.23 PBM z-score against 500 random probes |
